According to IntAct's records for PubMed 17431395:

Target: T1, goga2_human GOLGA2 (UniProt Q08379)
T1 sequence: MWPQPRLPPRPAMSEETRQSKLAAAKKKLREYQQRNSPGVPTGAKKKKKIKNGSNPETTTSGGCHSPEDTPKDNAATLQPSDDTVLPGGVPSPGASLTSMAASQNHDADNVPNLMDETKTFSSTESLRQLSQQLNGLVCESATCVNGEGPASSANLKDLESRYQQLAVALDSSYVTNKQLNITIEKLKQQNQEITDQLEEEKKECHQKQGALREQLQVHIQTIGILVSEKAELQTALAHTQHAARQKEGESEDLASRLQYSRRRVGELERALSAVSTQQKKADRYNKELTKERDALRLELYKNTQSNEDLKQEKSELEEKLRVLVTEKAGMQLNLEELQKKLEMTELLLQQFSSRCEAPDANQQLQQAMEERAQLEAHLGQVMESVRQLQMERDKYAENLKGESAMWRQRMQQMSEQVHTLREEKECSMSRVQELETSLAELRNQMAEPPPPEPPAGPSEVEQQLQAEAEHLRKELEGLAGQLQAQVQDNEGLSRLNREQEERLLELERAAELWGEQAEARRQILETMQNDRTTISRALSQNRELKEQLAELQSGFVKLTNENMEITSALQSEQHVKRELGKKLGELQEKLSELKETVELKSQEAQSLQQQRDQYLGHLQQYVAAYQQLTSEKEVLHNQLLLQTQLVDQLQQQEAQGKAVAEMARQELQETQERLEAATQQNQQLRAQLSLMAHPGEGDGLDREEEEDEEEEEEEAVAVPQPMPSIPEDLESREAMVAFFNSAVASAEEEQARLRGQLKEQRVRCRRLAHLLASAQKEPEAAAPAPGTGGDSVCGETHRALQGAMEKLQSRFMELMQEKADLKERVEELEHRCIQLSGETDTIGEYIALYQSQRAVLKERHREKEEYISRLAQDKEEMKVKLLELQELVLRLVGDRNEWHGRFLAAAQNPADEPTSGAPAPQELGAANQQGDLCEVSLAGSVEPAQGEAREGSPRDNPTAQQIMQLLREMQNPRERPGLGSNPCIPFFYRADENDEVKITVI

## Transthyretin (Homo sapiens) (from UniProt P02766) D38E
  effect of a mutation on the interaction: disrupting interaction
